For assay [1], the target named is Soluble RhoA (residues 1–181) (UniProt P61586). Kind of assay: SPR; Biacore 3000; His6-RhoA loaded with GTPγS (RhoA-GTP) held on a nitrilotriacetic acid chip; untagged onco-Lbc or DHαPH injected (0–5 μM); PBS pH 7.4, 1 mM MgCl2; reference lane His6-ubiquitin; constant of onco-Lbc called apparent (two sites).
Assay [2] has the same target. The experiment in a line: SPR; Biacore 3000; His6-RhoA loaded with GDPβS (RhoA-GDP) held on a nitrilotriacetic acid chip; untagged onco-Lbc or DHαPH injected (0–5 μM); PBS pH 7.4, 1 mM MgCl2; reference lane His6-ubiquitin; constant of onco-Lbc called apparent (two sites).
Assay [3] has the same target.
For assay [4] the target is unchanged. This is another data set of the same source.

Chain of UniProt P61586 (P61586 1-181): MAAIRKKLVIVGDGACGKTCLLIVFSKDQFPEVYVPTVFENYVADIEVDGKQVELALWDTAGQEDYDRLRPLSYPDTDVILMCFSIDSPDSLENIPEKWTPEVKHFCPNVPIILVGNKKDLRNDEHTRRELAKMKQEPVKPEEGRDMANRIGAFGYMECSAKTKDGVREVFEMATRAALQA

Turning to “AKAP-Lbc construct encompassing residues 2164–2346 (DHαPH) (from UniProt Q12802 2164-2346) (domain or fragment)”, the Kd in assay [1] is 2930 nM; in assay [2], above 50000 nM.
The like results for “onco-Lbc (AKAP13 residues 1922–2346) (domain or fragment)” were, in that order, 2210 nM and 2880 nM.
Regarding onco-Lbc E2001A (domain or fragment), in assay [3], the relative activity (specific exchange activity, DH-PH = 1) (fold of DH-PH) was 0.27 and the specific exchange activity (Mant-GDP on RhoA replaced by GMP-PNP) was 1070 s⁻¹ M⁻¹. The molecule further returned a GEF activity: exchange of GDP to Mant-GTP on RhoA, wild-type onco-Lbc = 100 (% of wild-type onco-Lbc) in assay [4] of 8.4.
Consider onco-Lbc E2319A (domain or fragment), for which, in assay [3], the relative activity (specific exchange activity, DH-PH = 1) (fold of DH-PH) turned out to be 1.86 and the specific exchange activity (Mant-GDP on RhoA replaced by GMP-PNP) came to 7300 s⁻¹ M⁻¹. Moreover, the GEF activity: exchange of GDP to Mant-GTP on RhoA, wild-type onco-Lbc = 100 (% of wild-type onco-Lbc) in assay [4] came out at 148.
onco-Lbc F2299A (domain or fragment): in assay [3], the relative activity (specific exchange activity, DH-PH = 1) (fold of DH-PH) worked out at 0.11 and the specific exchange activity (Mant-GDP on RhoA replaced by GMP-PNP) is 440 s⁻¹ M⁻¹. This molecule yielded a GEF activity: exchange of GDP to Mant-GTP on RhoA, wild-type onco-Lbc = 100 (% of wild-type onco-Lbc) in assay [4] of 23.3.
The like results for onco-Lbc R2136G (domain or fragment) were, in that order, 0.06, 230 s⁻¹ M⁻¹ and 7.4.
In the case of onco-Lbc R2289A (domain or fragment), in assay [3], the relative activity (specific exchange activity, DH-PH = 1) (fold of DH-PH) is 0.17 and the specific exchange activity (Mant-GDP on RhoA replaced by GMP-PNP) stood at 680 s⁻¹ M⁻¹. This molecule gave a GEF activity: exchange of GDP to Mant-GTP on RhoA, wild-type onco-Lbc = 100 (% of wild-type onco-Lbc) in assay [4] of 10.9.

B1: isolated DH domain of onco-Lbc (AKAP13 residues 1992–2210) (domain or fragment)
chain: VVKRQEVIYELMQTEFHHVRTLKIMSGVYSQGMMADLLFEQQMVEKLFPCLDELISIHSQFFQRILERKKESLVDKSEKNFLIKRIGDVLVNQFSGENAERLKKTYGKFCGQHNQSVNYFKDLYAKDKRFQAFVKKKMSSSVVRRLGIPECILLVTQRITKYPVLFQRILQCTKDNEVEQEDLAQSLSLVKDVIGAVDSKVASYEKKVRLNEIYTKTDS
As to B1, in assay [3], the relative activity (specific exchange activity, DH-PH = 1) (fold of DH-PH) is 3.7 and the specific exchange activity (Mant-GDP on RhoA replaced by GMP-PNP) stood at 14300 s⁻¹ M⁻¹. Further, the GEF activity: exchange of GDP to Mant-GTP on RhoA, wild-type onco-Lbc = 100 (% of wild-type onco-Lbc) in assay [4] came out at 174.

Source of the values: paper PMC4156082.
